Reference: paper PMC7253169

Assays:
[1] = biological target: BG505 SOSIP.664 Env trimer (HIV-1 (BG505)) (UniProt Q2N0S6)
[2] = biological target: BG505 SOSIP.664 Env trimer (HIV-1 (BG505)) (UniProt Q2N0S6); test: ELISA; direct ELISA: plates coated with soluble BG505 SOSIP trimer (0.2 or 2 ng/μl) in PBS pH 7.4; serially diluted Fab mutants from cell culture supernatant, room temperature 1 hour; goat anti-human lambda HRP; compared with wild-type Fab on the same plate
[3] = biological target: BG505 SOSIP.664 Env trimer (UniProt Q2N0S6); test: ELISA; details: parent: 1

Row | Substance | neutralization on BG505 pseudovirus; fold reduction of potency against wild-type Fab [1] [fold] | fold reduction of binding in ELISA against wild-type Fab [2] [fold] | ratio to parent [3]
1 | NC-Cow1 Fab TyrD31 alanine mutant | > 9 | > 9 | 
2 | Fab NC-Cow1 D:D5A |  |  | 1.9
3 | NC-Cow1 Fab ArgD11 alanine mutant | > 9 | > 9 | 
4 | NC-Cow1 Fab AsnH100 alanine mutant | > 3 |  | 
5 | Fab NC-Cow1 H:N100A |  |  | 1.6
6 | NC-Cow1 Fab ArgD27 alanine mutant | > 9 | > 9 | 
7 | NC-Cow1 Fab ArgD33 alanine mutant | > 9 | > 9 | 
8 | Fab NC-Cow1 D:Q15A |  |  | 1.4
9 | Fab NC-Cow1 D:T7A |  |  | 1.3
10 | NC-Cow1 Fab TyrD40 alanine mutant | > 3 |  | 
11 | Fab NC-Cow1 D:D26A |  |  | 0.8
12 | NC-Cow1 Fab ArgD43 alanine mutant | > 3 |  | 
13 | Fab NC-Cow1 D:R43A |  |  | 0.8
14 | Fab NC-Cow1 D:Q34A |  |  | 1.3
15 | Fab NC-Cow1 D:Q14A |  |  | 0.9
16 | Fab NC-Cow1 D:S19A |  |  | 1
17 | Fab NC-Cow1 D:G29A |  |  | 64.2
18 | Fab NC-Cow1 D:H42A |  |  | 1
19 | Fab NC-Cow1 D:Y40A |  |  | 1
20 | NC-Cow1 Fab LysH100b alanine mutant | > 3 |  | 
21 | Fab NC-Cow1 D:M24A |  |  | 73.8
22 | NC-Cow1 Fab TyrD6 alanine mutant | > 9 | > 9 | 
23 | NC-Cow1 Fab GluD1 alanine mutant | > 3 |  | 
24 | Fab NC-Cow1 D:E1A |  |  | 1.2
